Substitutions are numbered along the chain they refer to. Values belong to the binder of their own block, whether it stands above or below them.
Assays:
[1] = target: T1, Human PD-L1 His (human PD-L1 ECD with C-terminal His tag) (human, UniProt Q9NZQ7 19-238); experiment: ELISA, biotin-PD-L1 to plate-bound CD80, antibody titrated
T1 construct: Biotinylated in ELISA and AlphaScreen assays; also called hPD-L1-his; biotinylated PD-L1 his
Protocol: (§1) Excess protein was removed by washing with PBS-Tween (0.1% v/v) and the wells were blocked with 1% w/v bovine serum albumin (BSA, Sigma) in PBS for 1 hour at room temperature, after which plates were washed with PBS-Tween as above. 60 μL of a titration (three-fold serial dilution) of antibody was added to a 96-well, non-binding plate diluted in ELISA assay buffer (PBS +0.1% BSA). […] The plate was incubated for 30 minutes before transferring 50 μL to the coated plates. The coated plates were incubated for 1 hour at room temperature. Excess protein was removed by washing with PBS-Tween (0.1% v/v). PD-L1 binding was detected using streptavidin labelled europium (Perkin Elmer) diluted 1/1000 in DELFIA assay buffer (Perkin Elmer). The plates were washed with TBS (Tris buffered saline)-Tween (0.1% v/v) and 50 μL/well of DELFIA Enhancement solution (Perkin Elmer) was added to the plate. Time-resolved fluorescence was measured at 615 nm on an Envision plate reader (PerkinElmer). Percentage specific binding was calculated as defined in Equation 3. IC50 values were determined using GraphPad Prism software by curve fitting using a four-parameter logistic equation (Equation 4). Values for KM121 antibodies are a mean of three independent experiments. Values for KM122 are from a single experiment.

Mouse PD-L1 ECD His = target: T2, Mouse PD-L1 ECD His (mouse, UniProt Q9EP73 19-239); experiment: SPR 25C and 37C
T2 construct: also called mouse PD-L1 (his-tagged)
T2 sequence (Q9EP73 other isoform, or with tags, fused parts or gaps): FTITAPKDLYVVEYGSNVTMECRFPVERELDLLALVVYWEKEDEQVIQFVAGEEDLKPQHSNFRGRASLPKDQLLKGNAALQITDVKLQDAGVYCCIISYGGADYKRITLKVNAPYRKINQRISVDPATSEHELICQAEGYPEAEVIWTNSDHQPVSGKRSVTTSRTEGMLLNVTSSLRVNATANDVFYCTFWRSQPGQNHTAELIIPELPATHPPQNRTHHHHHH

[2] = target: T3, Human PD-L1 expressed on cells (human, UniProt Q9NZQ7 19-290); experiment: cell-based or functional assay
T3 sequence (Q9NZQ7 19-290 limits assumed): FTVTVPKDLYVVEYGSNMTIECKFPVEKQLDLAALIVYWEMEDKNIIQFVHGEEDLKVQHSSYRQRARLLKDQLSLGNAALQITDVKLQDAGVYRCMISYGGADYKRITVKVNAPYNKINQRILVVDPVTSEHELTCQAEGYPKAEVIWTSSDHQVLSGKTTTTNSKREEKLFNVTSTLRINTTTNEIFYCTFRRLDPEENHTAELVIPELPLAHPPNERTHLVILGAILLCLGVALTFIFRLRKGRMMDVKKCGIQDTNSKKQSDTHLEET

[3] = target: T3, Human PD-L1 expressed on cells; experiment: cell-based or functional assay; remark: listed apart in the source
[4] = target: T3, Human PD-L1 expressed on cells; experiment: cell-based or functional assay; remark: listed apart in the source
[5] = target: T1, Human PD-L1 His (human PD-L1 ECD with …); experiment: SPR 25C, antibody captured, PD-L1 analyte
Protocol: (§2) Label-free surface plasmon resonance (SPR) analysis was carried out on the ProteOn XPR36 (BioRad) array SPR machine. An anti-human IgG capture surface was created on a GLC biosensor chip using a combination of anti-human Fc antibodies (Jackson Labs 09-005-008,109-006-008 and 309-006-008) by amine coupling. […] The data was analysed using the 1:1 model inherent to the ProteOn XPR36 analysis software.

[6] = target: T4, Cyno PD-L1 FLAG (cynomolgus PD-L1 ECD with FLAG tag) (cynomolgus monkey); experiment: SPR 25C, antibody captured, PD-L1 analyte
T4 construct: also called cynomolgus monkey PD-L1-FLAG
T4 sequence (chain, as listed by the source limits assumed): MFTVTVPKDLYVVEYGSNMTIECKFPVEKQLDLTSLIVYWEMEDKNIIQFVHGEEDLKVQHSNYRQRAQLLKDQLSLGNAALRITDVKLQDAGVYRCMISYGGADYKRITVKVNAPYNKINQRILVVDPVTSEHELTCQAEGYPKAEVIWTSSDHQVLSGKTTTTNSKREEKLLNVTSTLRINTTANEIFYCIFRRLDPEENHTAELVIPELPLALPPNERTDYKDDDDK
Protocol: as §2

[7] = target: T1, Human PD-L1 His (human PD-L1 ECD with …); experiment: SPR 37C, antibody captured, PD-L1 analyte
[8] = target: T4, Cyno PD-L1 FLAG (cynomolgus PD-L1 ECD …); experiment: SPR 37C, antibody captured, PD-L1 analyte
[9] = target: T1, Human PD-L1 His (human PD-L1 ECD with …); experiment: ELISA, biotin-PD-L1 to plate-bound PD-1, antibody titrated
Protocol: as §1

[10] = target: T3, Human PD-L1 expressed on cells; experiment: flow cytometry on CHO hPD-L1 cells, competitor biotin-CD80-Fc, n = 1
Protocol: (§3) 150 μL FACS buffer is added and cells washed as described above. […] Cells are incubated at 4° C. for 60 minutes. Cells are washed twice with 150 μL FACS buffer, centrifuging at 300 g for 3 minutes after each wash step and aspirating supernatant. Cells are fixed, washed and resuspended for analysis as above. APC signal intensity (geometric mean) is measured by flow cytometry using a Beckman Coulter CYTOFLEX instrument. Data is plotted as percentage of receptor binding.
(§4) All other steps are performed as per plate 2.

[11] = target: T3, Human PD-L1 expressed on cells; experiment: flow cytometry on CHO hPD-L1 cells, competitor biotin-CD80-Fc, n = 2
Protocol: as §3, §4

[12] = target: T3, Human PD-L1 expressed on cells; experiment: flow cytometry on CHO hPD-L1 cells, competitor biotin-PD-1-Fc, n = 1
Protocol: as §3

[13] = target: T3, Human PD-L1 expressed on cells; experiment: flow cytometry on CHO hPD-L1 cells, competitor biotin-PD-1-Fc, n = 2
Protocol: as §3

[14] = target: T1, Human PD-L1 His (human PD-L1 ECD with …); experiment: SPR 25C, antibody captured, PD-L1 analyte; remark: listed apart in the source

T1 sequence (Q9NZQ7 19-238 limits assumed): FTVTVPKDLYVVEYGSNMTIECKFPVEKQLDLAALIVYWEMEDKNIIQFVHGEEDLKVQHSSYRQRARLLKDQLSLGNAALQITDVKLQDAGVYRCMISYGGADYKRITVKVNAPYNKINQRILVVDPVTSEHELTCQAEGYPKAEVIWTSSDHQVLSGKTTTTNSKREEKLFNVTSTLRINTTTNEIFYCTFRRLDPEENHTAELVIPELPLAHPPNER

B2: 416E01 (human IgG1) (antibody, V domains shown)
VH: EVQLAESGGGLVQPGGSLRLSCAASGFTFSNYAMSWVRQTPGKGLEWVSAISFSGGTTYYADSVKGRFTISRDNSKNTLYLHMNSLRADDTAVYYCAKDEAPAGATFFDSWGQGTLVTVSS
VL: DIQMTQSPSSVSASVGDRVTITCRASQGIRRWLAWYQQKPGKAPKLLISGASSLQSGVPSRFSGSGSGTDFTLIITSLQPEDFATYYCQQANSFPITFGQGTRLEIKR
binding result (Mouse PD-L1 ECD His): no binding
mean EC50, IFNγ induction, monocyte-T cell co-culture [2]: 0.064 nM
mean fold increase IFNγ, monocyte-T cell co-culture [2]: 2.23 fold
EC50, IL-2 induction, murine T cell hybridoma assay, n = 1 [3]: 0.19 nM
EC50, IL-2 induction, murine T cell hybridoma assay, n = 2 [3]: 0.15 nM
EC50, IL-2 induction, murine T cell hybridoma assay, n = 3 [3]: 0.14 nM
EC50, ADCC reporter assay, n = 1 [4]: 0.08 nM
EC50, ADCC reporter assay, n = 2 [4]: 0.0106 nM
EC50, ADCC reporter assay, n = 3 [4]: 0.0229 nM
max fold induction, ADCC reporter assay, n = 1 [4]: 32.1 fold
max fold induction, ADCC reporter assay, n = 2 [4]: 33.8 fold
max fold induction, ADCC reporter assay, n = 3 [4]: 60.2 fold
Kd [5]: 0.193 nM
Kd [6]: 0.411 nM
Kd [7]: 0.511 nM
Kd [8]: 0.998 nM
IC50 [1]: 0.98 nM
IC50 [9]: 1.72 nM
IC50 [10]: 1.04 nM
IC50 [11]: 0.89 nM
IC50 [12]: 0.81 nM
IC50 [13]: 0.89 nM

B3: 413D08 (antibody, human IgG1, kappa, V domains shown)
VH: QVQLVESGGGVVQPGRSLRLSCAASGFTFRIYGMHWVRQAPGKGLEWVAVIWYDGSNKYYADSVKGRFTISRDNSDNTLYLQMNSLRAEDTAVYYCARDMDYFGMDVWGQGTTVTVSS
VL: DLQMTQSPSSLSASVGDRVTITCRASQGIRNDLGWYQQKPGKAPKRLIYAASSLQSGVPSRFSGSGSGTEFTLTISSLQPEDFATYYCLQHNSYPRTFGQGTKVEIKR
IC50 [1]: 0.67 nM
IC50 [9]: 1.2 nM

B4: 411B08 (antibody, human IgG1, kappa, V domains shown)
VH: EVQLVESGGGLVQPGGSLRLSCAASGFTFSSYWMSWVRQAPGKGLEWVANIKEDGSEKYYVDSVKGRFTISRDNAKNSLYLQMNSLRAEDTSVYYCARNRLYSDFLDNWGQGTLVTVSS
VL: DIQMTQSPSSVSASVGDRVTITCRASQGVSSWLAWYQQKSGKAPKLLIYGASSLQSGVPSRFSGSGSGTEFILTISSLQPEDFATYYCQQANSIPFTFGPGTKVDIKR
IC50 [1]: 1.6 nM
IC50 [9]: 2.22 nM

B5: 385F01 (antibody, human IgG1, kappa, V domains shown)
VH: B4 VH
VL: B4 VL
IC50 [1]: 1.76 nM
IC50 [9]: 2.25 nM

B6: 411C04 (antibody, human IgG1, kappa, V domains shown)
VH: B4 VH with E6D, V64L, N99V, N108Y
VL: B4 VL with T74S
IC50 [1]: 1.93 nM
IC50 [9]: 2.45 nM

B7: 413G05 (antibody, human IgG1, kappa, V domains shown)
VH: QVQLVESGGGLVKPGGSLRLSCAASGFTFSDYYMSWIRQVPGKGLEWVSYISTSGSTIYYADSVKGRFTISRDNAKNSLYLQMNSLRAEDAAVYHCARGITGTNFYHYGLGVWGQGTTVTVSS
VL: DIQMTQSPSSVSASVGDRVTITCRASQGINSWLAWYQQKPGKAPKLLIYAASTLQSGVPSRFSGSGSGADFTLTISSLQPEDFATYYCQQVNSFPLTFGGGTKVEIKR
binding result (Mouse PD-L1 ECD His): no binding
mean EC50, IFNγ induction, monocyte-T cell co-culture [2]: 0.082 nM
mean fold increase IFNγ, monocyte-T cell co-culture [2]: 2.85 fold
EC50, IL-2 induction, murine T cell hybridoma assay, n = 1 [3]: 0.29 nM
EC50, IL-2 induction, murine T cell hybridoma assay, n = 2 [3]: 0.11 nM
EC50, IL-2 induction, murine T cell hybridoma assay, n = 3 [3]: 0.29 nM
EC50, ADCC reporter assay, n = 1 [4]: 0.0219 nM
EC50, ADCC reporter assay, n = 2 [4]: 0.0209 nM
EC50, ADCC reporter assay, n = 3 [4]: 0.0275 nM
max fold induction, ADCC reporter assay, n = 1 [4]: 13.2 fold
max fold induction, ADCC reporter assay, n = 2 [4]: 16.4 fold
max fold induction, ADCC reporter assay, n = 3 [4]: 23.4 fold
Kd [5]: 0.024 nM
Kd [6]: 0.015 nM
Kd [7]: 0.05 nM
Kd [8]: 0.046 nM
IC50 [1]: 1.1 nM
IC50 [9]: 2.02 nM
IC50 [10]: 1.09 nM
IC50 [11]: 1.17 nM
IC50 [12]: 1.07 nM
IC50 [13]: 1.17 nM

B8: 1D05 V to A & F to S change in VH (Seq ID No: 342), IgG1 disabled (LAGA), with 1D05 kappa (antibody, V domains shown)
VH: EVQLVESGGGLVQPGRSLRLSCAASGFTFDDYAMHWVRQAPGKGLEWVSGISWIRTGIGYADSVKGRFTISRDNAKNSLYLQMNSLRAEDTALYYCAKDMKGSGTYGGWFDTWGQGTLVTVSS
VL: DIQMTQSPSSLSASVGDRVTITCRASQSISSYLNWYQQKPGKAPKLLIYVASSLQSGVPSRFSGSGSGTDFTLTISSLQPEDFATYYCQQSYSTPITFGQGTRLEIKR
notes: Entry 342 is a whole heavy chain; also called 1D05 HC mutant 4
Kd [14]: 0.23 nM

B10: 1D05 - IgG1 disabled (LAGA) with 1D05 kappa, V to A change (Seq ID No: 50) (antibody, V domains shown)
VH: B8 VH with A40V, S71F
VL: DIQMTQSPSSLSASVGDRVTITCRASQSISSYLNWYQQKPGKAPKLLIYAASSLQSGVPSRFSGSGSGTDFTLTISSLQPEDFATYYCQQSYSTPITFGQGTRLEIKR
notes: also called 1D05 LC mutant 1
Kd [14]: 2.66 nM

B12: 1D05 V to A change in VH (Seq ID No: 47), IgG1 disabled (LAGA), with 1D05 kappa (antibody, V domains shown)
VH: B8 VH with S71F
VL: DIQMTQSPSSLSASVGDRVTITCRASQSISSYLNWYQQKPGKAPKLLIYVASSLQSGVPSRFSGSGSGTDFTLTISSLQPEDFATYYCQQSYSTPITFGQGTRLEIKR
notes: Listing entry 47 is a whole heavy chain said to carry the IgG1 disabled (LAGA) constant region; also called 1D05 HC mutant 1
Kd [14]: 0.33 nM

B13: 1D05 V to A change in VH (Seq ID No: 47), IgG1 disabled (LAGA), with 1D05 kappa V to A change (Seq ID No: 50) (antibody, V domains shown)
VH: B8 VH with S71F
VL: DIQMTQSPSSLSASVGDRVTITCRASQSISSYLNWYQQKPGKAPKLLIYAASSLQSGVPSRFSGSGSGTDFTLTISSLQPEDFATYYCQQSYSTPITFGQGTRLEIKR
notes: See note of m58
Kd [14]: 2.8 nM

B15: 411D07 (antibody, human IgG1, kappa, V domains shown)
VH: QVQLQESGPGLVKPSGTLSLTCIVSGGSIISSDWWNWVRQPPGKGLEWIGEIFHSGRTNYNPSLKSRVTISIDKSKNQFSLRLSSVTAADTAVYYCARDGSGSYWGQGTLVTVSS
VL: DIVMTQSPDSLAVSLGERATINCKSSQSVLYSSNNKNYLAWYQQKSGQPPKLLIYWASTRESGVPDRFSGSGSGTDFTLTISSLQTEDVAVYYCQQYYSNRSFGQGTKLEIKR
IC50 [1]: 9.06 nM

The next lines start with the values.

IC50 [1]: 13.2 nM
B1: 389A03 (antibody, human IgG1, kappa, V domains shown)
VH: QLQESGPGLVKPSETLSLTCTVSGGSISSSSYYCGWIRQPPGKGLDWIGSIYSTGYTYYNPSLKSRVTISIDTSKNQFSCLILTSVTAADTAVYYCAISTAAGPEYFHRWGQGTLVTVSS
VL: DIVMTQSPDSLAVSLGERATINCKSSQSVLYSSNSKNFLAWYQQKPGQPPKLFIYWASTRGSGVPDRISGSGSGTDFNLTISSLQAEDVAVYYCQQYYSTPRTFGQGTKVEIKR

Kd [14]: 0.23 nM
B9: 1D05 F to S change in VH (Seq ID No: 48), IgG1 disabled (LAGA), with 1D05 kappa (antibody, V domains shown)
VH: B8 VH with A40V
VL: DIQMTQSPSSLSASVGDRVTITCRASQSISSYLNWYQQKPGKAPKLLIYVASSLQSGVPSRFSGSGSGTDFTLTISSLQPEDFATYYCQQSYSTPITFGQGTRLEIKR
notes: Entry 48 is a whole heavy chain; also called 1D05 HC mutant 2

Kd [14]: 1.94 nM
B11: 1D05 V to A & F to S change in VH (Seq ID No: 342), IgG1 disabled (LAGA), with 1D05 kappa V to A change (Seq ID No: 50) (antibody, V domains shown)
VH: B8 VH
VL: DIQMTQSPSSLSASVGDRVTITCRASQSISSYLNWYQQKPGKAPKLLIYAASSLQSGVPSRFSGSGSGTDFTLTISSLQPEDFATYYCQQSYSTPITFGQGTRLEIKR
notes: See note of m60

Kd [14]: 1.94 nM
B14: 1D05 F to S change in VH (Seq ID No: 48), IgG1 disabled (LAGA), with 1D05 kappa V to A change (Seq ID No: 50) (antibody, V domains shown)
VH: B8 VH with A40V
VL: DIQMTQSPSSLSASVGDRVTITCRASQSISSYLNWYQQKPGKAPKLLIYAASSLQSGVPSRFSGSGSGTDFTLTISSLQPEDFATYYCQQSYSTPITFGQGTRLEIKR
notes: See note of m59

IC50 [1]: 0.74 nM
B16: 386H03 (antibody, human IgG1, kappa, V domains shown)
VH: B15 VH with I23A, I30S, N36S, R57N, I72V, F79I, S84N, A97V
VL: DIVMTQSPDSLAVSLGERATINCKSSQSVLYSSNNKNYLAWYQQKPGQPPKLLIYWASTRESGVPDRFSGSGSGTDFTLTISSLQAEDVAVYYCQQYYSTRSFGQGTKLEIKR

— patent US20210380699A1 (published 2021)
